The record followed here is article PMC10126545.

What is called stoichiometry N is a count of units in the complex or per binding partner.

The target of this assay is COBRA P1 HA ectodomain, insect-cell expressed, Foldon and tags removed by thrombin. The experiment in a line: SEC; Superdex 200 16/600 in 50 mM NaCl, 10 mM Tris pH 7.5, after thrombin digestion that removed the Foldon and tags.

With “COBRA P1 HA ectodomain, insect-cell expressed, Foldon and tags removed by thrombin”, the stoichiometry N stood at 3.
